Laboratory results: patent US20090053243A1 (INSTITUTE FOR ANTIBODIES, published 2009)

Target: T1, IgSF4 (Immunoglobulin superfamily member 4), human, as expressed by human cell lines (human, UniProt Q9BY67 45-442)
T1 construct: also called BL2; ST17
T1 sequence: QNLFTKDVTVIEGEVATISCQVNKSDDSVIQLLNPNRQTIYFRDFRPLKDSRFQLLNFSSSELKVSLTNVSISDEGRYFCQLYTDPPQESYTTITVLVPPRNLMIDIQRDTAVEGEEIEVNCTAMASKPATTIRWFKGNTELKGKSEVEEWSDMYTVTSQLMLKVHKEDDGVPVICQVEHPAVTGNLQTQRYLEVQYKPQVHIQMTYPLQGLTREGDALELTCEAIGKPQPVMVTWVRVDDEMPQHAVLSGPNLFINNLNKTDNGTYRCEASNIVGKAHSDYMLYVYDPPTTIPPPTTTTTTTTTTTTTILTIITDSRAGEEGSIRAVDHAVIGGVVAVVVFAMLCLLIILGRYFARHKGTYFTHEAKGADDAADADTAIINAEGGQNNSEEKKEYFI
Assay: statement in the ADCC experiment on VMRC-LCD target cells
Procedure: As target cells to be used, lung cancer derived cultured cells VMRC-LCD (provided from Japanese Collection of Research Bioresources) was grown in a liquid culture medium 1 (Minimum Essential Medium Alpha Medium: Invitrogen, 10% (v/v) fetal bovine serum: Equitic-Bio, 1% (v/v) Penicillin-Streptomycin Solution: Sigma-Aldrich) on a culture dish having a diameter of 150 mm. The liquid culture medium was removed, cells were washed with 10 ml of PBS twice, and liquid was removed. To this, 5 ml of 4% (w/v) collagenase Type IV (Invitrogen) was added and maintained at 37° C. for 10 minutes, thereby peeling the cells off from the culture dish.
Into a U-bottom 96-well multiplate (Becton Dickinson), 66 μl/well of target cells (2×10⁴ cells) were placed. To this, 66 μl of IgG antibody (3 μg/ml) was added, and then 66 μl of peripheral blood mononuclear leukocyte suspension (7.5×10⁵ cells) was added. The E/T ratio (ratio of the effector cells and target cells) was made to be 20. In order to prompt to associate cells, centrifugation (60×g, 4° C., 5 minutes) was carried out so as to precipitate cells in the bottom. Then, the cells were incubated for 240 minutes in a culture device under conditions of 37° C. and 5% CO₂, and thus the ADCC reaction was induced. Each antibody sample was prepared as a CTM solution. […] Furthermore, in each experiment group, three wells were used.

binding result: binds
B1: IgG type antibody 035-029 (antibody, V domains shown)
VH: EVQLVESGGGLVKPGGSLRLSCAASGFTFSSYAMSWVRQAPGKGLEWVSAISGSGGSTYYADSVKGRFTISRDNSKNTLYLQMNSLRAEDTALYYCARDNWYFDLWGRGTLVTVSS
VL: SSELTQDPAVSVALGQTVRITCQGDSLRSYYASWYQQKPGQAPVLVIYGKNNRLSGIPDRFSGSSSGNTASLTITGAQAEDEADYYCNSRDSSGNHVVFGGGTKLTVLG
notes: also called IgG antibody clone 035-029; human IgG type antibody clone recognizing IgSF4
